The test addresses Neutrophil elastase enzyme (Neutrophil Elastase Colorimetric Drug Discovery Kit, Enzo Life Sciences) (UniProt P08246). Description: cell-based or functional assay.
Sequence of UniProt P08246 (P08246 30-247 limits assumed): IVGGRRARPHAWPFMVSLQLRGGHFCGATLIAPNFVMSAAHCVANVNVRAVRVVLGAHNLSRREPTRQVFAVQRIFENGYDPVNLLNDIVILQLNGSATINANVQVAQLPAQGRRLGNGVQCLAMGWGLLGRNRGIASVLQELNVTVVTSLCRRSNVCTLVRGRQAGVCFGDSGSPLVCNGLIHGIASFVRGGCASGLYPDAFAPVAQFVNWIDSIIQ

As to “endogenous A1AT of wild type mice (from UniProt O89094 168-257)”, the Average % Inhibition (Percent inhibition of Neutrophil Elastase in purified serum samples) amounted to 95.6%.
